IntAct's records for PubMed 35512704

B1: Speckle-type POZ protein (Homo sapiens), O43791 (parent)
chain: MSRVPSPPPPAEMSSGPVAESWCYTQIKVVKFSYMWTINNFSFCREEMGEVIKSSTFSSGANDKLKWCLRVNPKGLDEESKDYLSLYLLLVSCPKSEVRAKFKFSILNAKGEETKAMESQRAYRFVQGKDWGFKKFIRRDFLLDEANGLLPDDKLTLFCEVSVVQDSVNISGQNTMNMVKVPECRLADELGGLWENSRFTDCCLCVAGQEFQAHKAILAARSPVFSAMFEHEMEESKKNRVEINDVEPEVFKEMMCFIYTGKAPNLDKMADDLLAAADKYALERLKVMCEDALCSNLSVENAAEILILADLHSADQLKTQAVDFINYHASDVLETSGWKSMVVSHPHLVAEAYRSLASAQCPFLGPPRKRLKQS

Variants of: B1
Conditions: with brd4_human BRD4, O60885

Row | effect of a mutation on the interaction | Variant
1 | disrupting interaction strength | MSRVPSPPPPAEMSSGPVAESWCYTQIKVVKFSYMWTINNFSFCREEMGEVIKSSTFSSGANDKLKWCLRVNPKGLDEESKDYLSLYLLLVSCPKSEVRAKFKFSILNAKGEETKAMESQRAYRFVQGKDWGLKKFIRRDFLLDEANGLLPDDKLTLFCEVSVVQDSVNISGQNTMNMVKVPECRLADELGGLWENSRFTDCCLCVAGQEFQAHKAILAARSPVFSAMFEHEMEESKKNRVEINDVEPEVFKEMMCFIYTGKAPNLDKMADDLLAAADKYALERLKVMCEDALCSNLSVENAAEILILADLHSADQLKTQAVDFINYHASDVLETSGWKSMVVSHPHLVAEAYRSLASAQCPFLGPPRKRLKQS [F133L]

Variants of: B1
Conditions: with ncoa3_human NCOA3, Q9Y6Q9

Row | effect of a mutation on the interaction | Variant
2 | disrupting interaction strength | MSRVPSPPPPAEMSSGPVAESWCYTQIKVVKFSYMWTINNFSFCREEMGEVIKSSTFSSGANDKLKWCLRVNPKGLDEESKDYLSLYLLLVSCPKSEVRAKFKFSILNAKGEETKAMESQRAYRFVQGKDWGLKKFIRRDFLLDEANGLLPDDKLTLFCEVSVVQDSVNISGQNTMNMVKVPECRLADELGGLWENSRFTDCCLCVAGQEFQAHKAILAARSPVFSAMFEHEMEESKKNRVEINDVEPEVFKEMMCFIYTGKAPNLDKMADDLLAAADKYALERLKVMCEDALCSNLSVENAAEILILADLHSADQLKTQAVDFINYHASDVLETSGWKSMVVSHPHLVAEAYRSLASAQCPFLGPPRKRLKQS [F133L]

Variants of: B1
Conditions: with jun_human JUN

Row | effect of a mutation on the interaction | Variant
3 | with no effect | MSRVPSPPPPAEMSSGPVAESWCYTQIKVVKFSYMWTINNFSFCREEMGEVIKSSTFSSGANDKLKWCLRVNPKGLDEESKDYLSLYLLLVSCPKSEVRAKFKFSILNAKGEETKAMESQRAYRFVQGKDWGLKKFIRRDFLLDEANGLLPDDKLTLFCEVSVVQDSVNISGQNTMNMVKVPECRLADELGGLWENSRFTDCCLCVAGQEFQAHKAILAARSPVFSAMFEHEMEESKKNRVEINDVEPEVFKEMMCFIYTGKAPNLDKMADDLLAAADKYALERLKVMCEDALCSNLSVENAAEILILADLHSADQLKTQAVDFINYHASDVLETSGWKSMVVSHPHLVAEAYRSLASAQCPFLGPPRKRLKQS [F133L]

Variants of: B1
Conditions: with akt1_human AKT1, P31749

Row | effect of a mutation on the interaction | Variant
4 | with no effect | MSRVPSPPPPAEMSSGPVAESWCYTQIKVVKFSYMWTINNFSFCREEMGEVIKSSTFSSGANDKLKWCLRVNPKGLDEESKDYLSLYLLLVSCPKSEVRAKFKFSILNAKGEETKAMESQRAYRFVQGKDWGLKKFIRRDFLLDEANGLLPDDKLTLFCEVSVVQDSVNISGQNTMNMVKVPECRLADELGGLWENSRFTDCCLCVAGQEFQAHKAILAARSPVFSAMFEHEMEESKKNRVEINDVEPEVFKEMMCFIYTGKAPNLDKMADDLLAAADKYALERLKVMCEDALCSNLSVENAAEILILADLHSADQLKTQAVDFINYHASDVLETSGWKSMVVSHPHLVAEAYRSLASAQCPFLGPPRKRLKQS [F133L]

Variants of: B1
Conditions: with alk_human ALK

Row | effect of a mutation on the interaction | Variant
5 | with no effect | MSRVPSPPPPAEMSSGPVAESWCYTQIKVVKFSYMWTINNFSFCREEMGEVIKSSTFSSGANDKLKWCLRVNPKGLDEESKDYLSLYLLLVSCPKSEVRAKFKFSILNAKGEETKAMESQRAYRFVQGKDWGLKKFIRRDFLLDEANGLLPDDKLTLFCEVSVVQDSVNISGQNTMNMVKVPECRLADELGGLWENSRFTDCCLCVAGQEFQAHKAILAARSPVFSAMFEHEMEESKKNRVEINDVEPEVFKEMMCFIYTGKAPNLDKMADDLLAAADKYALERLKVMCEDALCSNLSVENAAEILILADLHSADQLKTQAVDFINYHASDVLETSGWKSMVVSHPHLVAEAYRSLASAQCPFLGPPRKRLKQS [F133L]

Variants of: B1
Conditions: with aph1a_human APH1A

Row | effect of a mutation on the interaction | Variant
6 | with no effect | MSRVPSPPPPAEMSSGPVAESWCYTQIKVVKFSYMWTINNFSFCREEMGEVIKSSTFSSGANDKLKWCLRVNPKGLDEESKDYLSLYLLLVSCPKSEVRAKFKFSILNAKGEETKAMESQRAYRFVQGKDWGLKKFIRRDFLLDEANGLLPDDKLTLFCEVSVVQDSVNISGQNTMNMVKVPECRLADELGGLWENSRFTDCCLCVAGQEFQAHKAILAARSPVFSAMFEHEMEESKKNRVEINDVEPEVFKEMMCFIYTGKAPNLDKMADDLLAAADKYALERLKVMCEDALCSNLSVENAAEILILADLHSADQLKTQAVDFINYHASDVLETSGWKSMVVSHPHLVAEAYRSLASAQCPFLGPPRKRLKQS [F133L]

Variants of: B1
Conditions: with arnt_human ARNT

Row | effect of a mutation on the interaction | Variant
7 | with no effect | MSRVPSPPPPAEMSSGPVAESWCYTQIKVVKFSYMWTINNFSFCREEMGEVIKSSTFSSGANDKLKWCLRVNPKGLDEESKDYLSLYLLLVSCPKSEVRAKFKFSILNAKGEETKAMESQRAYRFVQGKDWGLKKFIRRDFLLDEANGLLPDDKLTLFCEVSVVQDSVNISGQNTMNMVKVPECRLADELGGLWENSRFTDCCLCVAGQEFQAHKAILAARSPVFSAMFEHEMEESKKNRVEINDVEPEVFKEMMCFIYTGKAPNLDKMADDLLAAADKYALERLKVMCEDALCSNLSVENAAEILILADLHSADQLKTQAVDFINYHASDVLETSGWKSMVVSHPHLVAEAYRSLASAQCPFLGPPRKRLKQS [F133L]

Variants of: B1
Conditions: with arc1a_human ARPC1A

Row | effect of a mutation on the interaction | Variant
8 | with no effect | MSRVPSPPPPAEMSSGPVAESWCYTQIKVVKFSYMWTINNFSFCREEMGEVIKSSTFSSGANDKLKWCLRVNPKGLDEESKDYLSLYLLLVSCPKSEVRAKFKFSILNAKGEETKAMESQRAYRFVQGKDWGLKKFIRRDFLLDEANGLLPDDKLTLFCEVSVVQDSVNISGQNTMNMVKVPECRLADELGGLWENSRFTDCCLCVAGQEFQAHKAILAARSPVFSAMFEHEMEESKKNRVEINDVEPEVFKEMMCFIYTGKAPNLDKMADDLLAAADKYALERLKVMCEDALCSNLSVENAAEILILADLHSADQLKTQAVDFINYHASDVLETSGWKSMVVSHPHLVAEAYRSLASAQCPFLGPPRKRLKQS [F133L]

Variants of: B1
Conditions: with arrb2_human ARRB2, P32121

Row | effect of a mutation on the interaction | Variant
9 | with no effect | MSRVPSPPPPAEMSSGPVAESWCYTQIKVVKFSYMWTINNFSFCREEMGEVIKSSTFSSGANDKLKWCLRVNPKGLDEESKDYLSLYLLLVSCPKSEVRAKFKFSILNAKGEETKAMESQRAYRFVQGKDWGLKKFIRRDFLLDEANGLLPDDKLTLFCEVSVVQDSVNISGQNTMNMVKVPECRLADELGGLWENSRFTDCCLCVAGQEFQAHKAILAARSPVFSAMFEHEMEESKKNRVEINDVEPEVFKEMMCFIYTGKAPNLDKMADDLLAAADKYALERLKVMCEDALCSNLSVENAAEILILADLHSADQLKTQAVDFINYHASDVLETSGWKSMVVSHPHLVAEAYRSLASAQCPFLGPPRKRLKQS [F133L]

Variants of: B1
Conditions: with bakor_human ATG14, Q6ZNE5

Row | effect of a mutation on the interaction | Variant
10 | with no effect | MSRVPSPPPPAEMSSGPVAESWCYTQIKVVKFSYMWTINNFSFCREEMGEVIKSSTFSSGANDKLKWCLRVNPKGLDEESKDYLSLYLLLVSCPKSEVRAKFKFSILNAKGEETKAMESQRAYRFVQGKDWGLKKFIRRDFLLDEANGLLPDDKLTLFCEVSVVQDSVNISGQNTMNMVKVPECRLADELGGLWENSRFTDCCLCVAGQEFQAHKAILAARSPVFSAMFEHEMEESKKNRVEINDVEPEVFKEMMCFIYTGKAPNLDKMADDLLAAADKYALERLKVMCEDALCSNLSVENAAEILILADLHSADQLKTQAVDFINYHASDVLETSGWKSMVVSHPHLVAEAYRSLASAQCPFLGPPRKRLKQS [F133L]

Variants of: B1
Conditions: with atm_human ATM

Row | effect of a mutation on the interaction | Variant
11 | with no effect | MSRVPSPPPPAEMSSGPVAESWCYTQIKVVKFSYMWTINNFSFCREEMGEVIKSSTFSSGANDKLKWCLRVNPKGLDEESKDYLSLYLLLVSCPKSEVRAKFKFSILNAKGEETKAMESQRAYRFVQGKDWGLKKFIRRDFLLDEANGLLPDDKLTLFCEVSVVQDSVNISGQNTMNMVKVPECRLADELGGLWENSRFTDCCLCVAGQEFQAHKAILAARSPVFSAMFEHEMEESKKNRVEINDVEPEVFKEMMCFIYTGKAPNLDKMADDLLAAADKYALERLKVMCEDALCSNLSVENAAEILILADLHSADQLKTQAVDFINYHASDVLETSGWKSMVVSHPHLVAEAYRSLASAQCPFLGPPRKRLKQS [F133L]

Variants of: B1
Conditions: with atpb_human ATP5F1B

Row | effect of a mutation on the interaction | Variant
12 | with no effect | MSRVPSPPPPAEMSSGPVAESWCYTQIKVVKFSYMWTINNFSFCREEMGEVIKSSTFSSGANDKLKWCLRVNPKGLDEESKDYLSLYLLLVSCPKSEVRAKFKFSILNAKGEETKAMESQRAYRFVQGKDWGLKKFIRRDFLLDEANGLLPDDKLTLFCEVSVVQDSVNISGQNTMNMVKVPECRLADELGGLWENSRFTDCCLCVAGQEFQAHKAILAARSPVFSAMFEHEMEESKKNRVEINDVEPEVFKEMMCFIYTGKAPNLDKMADDLLAAADKYALERLKVMCEDALCSNLSVENAAEILILADLHSADQLKTQAVDFINYHASDVLETSGWKSMVVSHPHLVAEAYRSLASAQCPFLGPPRKRLKQS [F133L]

Variants of: B1
Conditions: with aurkb_human AURKB

Row | effect of a mutation on the interaction | Variant
13 | with no effect | MSRVPSPPPPAEMSSGPVAESWCYTQIKVVKFSYMWTINNFSFCREEMGEVIKSSTFSSGANDKLKWCLRVNPKGLDEESKDYLSLYLLLVSCPKSEVRAKFKFSILNAKGEETKAMESQRAYRFVQGKDWGLKKFIRRDFLLDEANGLLPDDKLTLFCEVSVVQDSVNISGQNTMNMVKVPECRLADELGGLWENSRFTDCCLCVAGQEFQAHKAILAARSPVFSAMFEHEMEESKKNRVEINDVEPEVFKEMMCFIYTGKAPNLDKMADDLLAAADKYALERLKVMCEDALCSNLSVENAAEILILADLHSADQLKTQAVDFINYHASDVLETSGWKSMVVSHPHLVAEAYRSLASAQCPFLGPPRKRLKQS [F133L]

Variants of: B1
Conditions: with axin2_human AXIN2, Q9Y2T1

Row | effect of a mutation on the interaction | Variant
14 | with no effect | MSRVPSPPPPAEMSSGPVAESWCYTQIKVVKFSYMWTINNFSFCREEMGEVIKSSTFSSGANDKLKWCLRVNPKGLDEESKDYLSLYLLLVSCPKSEVRAKFKFSILNAKGEETKAMESQRAYRFVQGKDWGLKKFIRRDFLLDEANGLLPDDKLTLFCEVSVVQDSVNISGQNTMNMVKVPECRLADELGGLWENSRFTDCCLCVAGQEFQAHKAILAARSPVFSAMFEHEMEESKKNRVEINDVEPEVFKEMMCFIYTGKAPNLDKMADDLLAAADKYALERLKVMCEDALCSNLSVENAAEILILADLHSADQLKTQAVDFINYHASDVLETSGWKSMVVSHPHLVAEAYRSLASAQCPFLGPPRKRLKQS [F133L]

Variants of: B1
Conditions: with za2g_human AZGP1, P25311

Row | effect of a mutation on the interaction | Variant
15 | with no effect | MSRVPSPPPPAEMSSGPVAESWCYTQIKVVKFSYMWTINNFSFCREEMGEVIKSSTFSSGANDKLKWCLRVNPKGLDEESKDYLSLYLLLVSCPKSEVRAKFKFSILNAKGEETKAMESQRAYRFVQGKDWGLKKFIRRDFLLDEANGLLPDDKLTLFCEVSVVQDSVNISGQNTMNMVKVPECRLADELGGLWENSRFTDCCLCVAGQEFQAHKAILAARSPVFSAMFEHEMEESKKNRVEINDVEPEVFKEMMCFIYTGKAPNLDKMADDLLAAADKYALERLKVMCEDALCSNLSVENAAEILILADLHSADQLKTQAVDFINYHASDVLETSGWKSMVVSHPHLVAEAYRSLASAQCPFLGPPRKRLKQS [F133L]
